# From patent US20210371503A1 (UNIVERSITY OF COLOGNE, published 2021)
# Target: T1, prefusion stabilized SARS-CoV-2 S ectodomain (SARS-CoV-2, UniProt P0DTC2 14-1208)
# T1 construct: also called SARS-CoV-2 spike ectodomain; ectodomain of the spike (S) homotrimer of SARS-CoV-2
# Assay: assay not stated; row Binding Affinity Spike Trimer, construct not given
binder,measurement,value
"DZIF-10c (antibody, V domains shown, also called HbnC3t1p1_F4(-K); EX14870) VH: QVQLVESGGGVVQPGRSLRLSCAATGFTFRRYGMHWVRQAPGKGLEWVAGILFDGSNKYYVDSVKGRFTISRDSSRNTLYLQLNSLRREDTAVYYCAKGGDYEWELLESWGQGTLVTVSS VL: DIQMTQSPSTVSASVGDRVTITCRASQSIDNWLAWYQEKPGKAPKVLIYKASSLESGVPSRFSGRGSGTEFTLTISSLQPGDFATYYCQHYHSFPLTFGGGTKVDIKR",Kd,0.65 nM
